# B1: His6UL36^USP: His-tagged recombinant 533 N-terminal amino acids of HSV-1 UL36, ubiquitin-specific cysteine protease (protein)
# chain: MGGGNNTNPGGPVHKQAGSLASRAHMIAGTPPHSTMERGGDRDIVVTGARNQFAPDLEPGGSVSCMRSSLSFLSLIFDVGPRDVLSAEAIEGCLVEGGEWTRATAGPGPPRMCSIVELPNFLEYPGARGGLRCVFSRVYGEVGFFGEPAAGLLETQCPAHTFFAGPWALRPLSYTLLTIGPLGMGLFRDGDTAYLFDPHGLPEGTPAFIAKVRAGDMYPYLTYYTRDRPDVRWAGAMVFFVPSGPEPAAPADLTAAALHLYGASETYLQDEAFSERRVAITHPLRGEIAGLGEPCVGVGPREGVGGPGPHPPTAAQSPPPTRARRDDRASETSRGTAGPSAKPEAKRPNRAPDDVWAVALKGTPPTDPPSADPPSADPPSAIPPPPPSAPKTPAAEAAEEDDDDMRVLEMGVVPVGRHRARYSAGLPKRRRPTWTPPSSVEDLTSGEKTKRSAPPAKTKKKSTPKGKTPVGAAVPASVPEPVLASAPPDPAGPPVAEAGEDDGPTVPASSQALEALKTRRSPEPPGADLAQLF
# modifications: left off: small tags and cut ends
# notes: His-tagged recombinant 533 N-terminal amino acids of HSV-1 UL36, ubiquitin-specific cysteine protease
# Target: T1, His6UL36^USP (Human herpesvirus 1, UniProt P10220)
# T1 construct: amino acids 1 to 533 of the UL36 gene product from HHV HSV1; 6-His (pET-28a(+)) (N); 6-His (pET-28a(+)) (C); made in house; host or cells: E. coli BL21 or BL21 RIPL
# Assay: Cleavage of Ub-AMC by recombinant UL36^USP
# Type: biochemical, HSV-1
# Conditions: ~0.1 pmol enzyme, Ub-AMC, 25° C.
# Procedure: Recombinant UL36^USP and UL36^USP/C65A (˜0.1 pmol) were incubated in 125 μl kinetics buffer (50 mM HEPES, pH 7.5, 0.5 mM EDTA) supplemented with 1 mM DTT at room temperature for 10 minutes. To this was added 75 μl of Ub-AMC (250 nM in kinetics buffer) and AMC liberation was measured at 25° C. For inhibition experiments, one of UbVME, SUMO-VME, ISG15-VS, or Nedd8-VS (10 pmol) was incubated with recombinant UL36^USP (˜0.1 pmol) for 30 minutes at room temperature. To this was added 75 μl of Ub-AMC (250 nM in kinetics buffer) and AMC liberation was measured. Cleavage experiments were performed in triplicate. All fluorescence measurements were made using a Wallac Victor^3 1420 fluorescence/luminescence plate reader (Perkin Elmer) using 380 nm excitation and 460 nm emission wavelengths, with 5 second intervals between measurements. Data were exported as an Excel file and plotted as mean values of replicate experiments using Kaleidagraph v3.6 (Synergy Software).
# In a typical eukaryotic cell, the presence of multiple DUBs, whose substrate pool and catalytic activities may overlap, confounds straightforward analysis of the activity of any one particular DUB. […] The proteins were expressed, purified over Ni-NTA resin and evaluated for their ability to cleave Ub C-terminal 7-amido-4-methylcoumarin (Ub-AMC) (Dang et al., 1998). […]
molecule,measurement,value
B1,Turnover number for Ub-AMC cleavage,~6 min⁻¹

# Source: patent US20070092942A1, “Ubiquitin specific enzymes of family herpesviridae” (priority 2005, published 2007)
